Results: PMC10756261 (Proceedings of the National Academy of Sciences of the …, 2023)

Molecular target: T1, GST-RPA1a (Arabidopsis thaliana, UniProt Q9SKI4 1-640)
T1 sequence (looked up): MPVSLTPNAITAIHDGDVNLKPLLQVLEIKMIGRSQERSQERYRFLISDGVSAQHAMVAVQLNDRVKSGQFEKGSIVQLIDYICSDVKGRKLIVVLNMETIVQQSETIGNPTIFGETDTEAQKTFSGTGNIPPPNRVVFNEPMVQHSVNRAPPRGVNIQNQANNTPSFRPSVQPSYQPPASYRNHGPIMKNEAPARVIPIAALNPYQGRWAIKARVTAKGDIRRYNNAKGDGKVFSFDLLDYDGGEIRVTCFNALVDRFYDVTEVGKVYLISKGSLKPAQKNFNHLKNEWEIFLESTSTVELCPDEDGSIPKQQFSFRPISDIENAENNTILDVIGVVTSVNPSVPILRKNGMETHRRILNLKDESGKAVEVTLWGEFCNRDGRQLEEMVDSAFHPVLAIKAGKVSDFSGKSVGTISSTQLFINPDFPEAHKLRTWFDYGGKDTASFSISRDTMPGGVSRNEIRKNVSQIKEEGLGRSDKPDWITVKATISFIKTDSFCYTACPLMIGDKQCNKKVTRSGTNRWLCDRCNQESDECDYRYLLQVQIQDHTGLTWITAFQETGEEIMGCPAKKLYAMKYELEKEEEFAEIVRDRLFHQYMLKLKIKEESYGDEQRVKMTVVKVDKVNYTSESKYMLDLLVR
Assay: pull-down

B1: His-Sumo-HEI10 (natural protein, Arabidopsis thaliana, UniProt F4HRI2 1-304, looked up)
chain: MRCNACWRDLEGRAISTTCGHLLCTEDASKILSNDGACPICDQVLSKSLMKPVDINPNEEWINMAMAGISPQILMKSAYRSVMFYIAQRDLEMQYKMNRVVAQCRQKCEGMQAKFSEKMEQVHTAYQKMGKRCQMMEQEVENLTKDKQELQEKFSEKSRQKRKLDEMYDQLRSEYESVKRTAIQPANNFYPRHQEPDFFSNPAVNMMENRETIRKDRSFFSPATPGPKDEIWPARQNSSNSGPFDISTDSPAIPSDLGNRRAGRGHPVYGGGGTANPQSTLRNLILSPIKRSQLSRSRPQLFTL
  binding result: binds
